# According to article PMC8538103:
# What was measured:
# [1] = target: neuraminidase from A/BrevigMission/1/1918 (H1N1), residues 83 to 468 of the ectodomain, construct pTT5-NA (+SS −TET) (influenza A virus A/BrevigMission/1/1918 (H1N1)); test: dynamic light scattering; in solution; data not shown
# [2] = target: neuraminidase from A/BrevigMission/1/1918 (H1N1), residues 83 to 468 of the ectodomain, construct pTT5-NA (+SS −TET) (influenza A virus A/BrevigMission/1/1918 (H1N1)); test: crystal structure
substance,measurement,setting,value
"neuraminidase from A/BrevigMission/1/1918 (H1N1), residues 83 to 468 of the ectodomain, construct pTT5-NA (+SS −TET) (domain or fragment)",stoichiometry N,[1],4
same,stoichiometry N,[2],4
